Like-named read-outs stand apart in the source and are kept apart here.
Key:
[1] = system: PNMT; assay: PNMT enzyme activity assay of recombinant allozymes (14C-SAM methylation of octopamine); format: biochemical, human; conditions: recombinant allozyme in COS-1 cell homogenate; 65.9 μM octopamine, 24.22 μM 14C-SAM; corrected for transfection efficiency
Text: Recombinant PNMT Expression Constructs and Allozyme Expression: PNMT cDNA sequences for the three non-synonymous cSNPs that were observed during the resequencing experiments were created using the QuickChange Site-Directed Mutagenesis kit (Stratagene, La Jolla, Calif.), using the wild type PNMT cDNA open reading frame (ORF) in the pUni/V5-His-TOPO (pUni) vector (Invitrogen) as template. Specifically, the full-length wild type ORF (GenBank accession number J03727) was amplified using human brain Marathon-Ready cDNA (Clontech) as template. The resultant PNMT cDNA was subcloned into pUni, a vector that is only 2.3 kilobases in length, so it is well suited for performing “circular PCR” during site-directed mutagenesis. […]
PNMT Enzyme Activity: PNMT activity was measured using a method based on that of Molnicoff et al. (1971) J. Pharmacol. Exp. Ther. 178(3):425-431. […] “Blank” samples included the same quantity of COS-115,000×g supernatant from cells that were transfected with “empty” pCR3.1 expression vector, making it possible to correct for endogenous activity. Reaction mixtures were incubated at 37° C. for 30 minutes, and reactions were stopped with 500 μl Borate Buffer (pH 10). ^14C-N-methyl-octopamine was extracted into toluene containing 20% isoamyl alcohol, and radioactivity of the extracted ^14C-N-methyl-octopamine was measured in a liquid scintillation counter. […]

[2] = system: PNMT; assay: Substrate kinetics: apparent Km values of recombinant PNMT allozymes for octopamine and SAM; format: biochemical, human; conditions: recombinant allozyme from COS-1 cells
Method: Expression constructs for the wild type and variant PNMT sequences were transfected into COS-1 cells using the TransFast™ reagent (Promega), with a 1:1 charge ratio. pSV-β-Galactosidase (Promega) was co-transfected as an internal control to make it possible to correct for transfection efficiency. The COS-1 cells were harvested after 48 hours and were homogenized with a Polytron homogenizer (Brinkmann Instruments, Westbury, N.Y.) in 25 mM potassium phosphate buffer, pH 7.8 that contained 1 mM dithiothreitol (DTT) and 1 mM EDTA. Cell homogenates were centrifuged at 15,000×g for 15 minutes, and the resultant supernatant preparations were used for enzyme assays and substrate kinetic studies.
Estimating Apparent Km Values: To estimate apparent Km values of PNMT for the octopamine substrate, a series of octopamine and SAM concentrations were tested with the recombinant allozymes. Blanks for each substrate concentration were included by assaying COS-1 cell cytosol after transfection with empty […] vector. […] Apparent Km values were calculated using the method of Wilkinson with a computer program written by Cleland. Wilkinson supra; and Cleland supra.

B1: WT: recombinant wild type (reference) human PNMT polypeptide, SEQ ID NO:8, expressed in COS-1 cells (protein)
chain: MSGADRSPNAGAAPDSAPGQAAVASAYQRFEPRAYLRNNYAPPRGDLCNPNGVGPWKLRCLAQTFATGEVSGRTLIDIGSGPTVYQLLSACSHFEDITMTDFLEVNRQELGRWLQEEPGAFNWSMYSQHACLIEGKGECWQDKERQLRARVKRVLPIDVHQPQPLGAGSPAPLPADALVSAFCLEAVSPDLASFQRALDHITTLLRPGGHLLLIGALEESWYLAGEARLTVVPVSEEEVREALVRSGYKVRDLRTYIMPAHLQTGVDDVKGVFFAWAQKVGL
modifications: Homo sapien
% WT Enzyme activity [1]: 100 % WT
Km ([2]; substrate SAM, read-out: Apparent Km (SAM)): 6.6 µM
Km ([2]; substrate octopamine, listed as WT PNMT protein, read-out: Apparent Km (octopamine)): 13.6 µM
Km ([2]; substrate octopamine, read-out: Apparent Km (octopamine)): 23.5 ± 3.1 µM
